Laboratory results as given in the supplement of paper PMC9112550, “Optimization of the antimicrobial peptide Bac7 by deep mutational scanning” (BMC Biology, 2022).

These sequences were tested on Escherichia coli TOP10 (assay: shrunken log2 fold change of peptide-encoding DNA abundance (4.5 h post-induction vs induction); higher = less antimicrobial activity (less host growth inhibition)). Conditions: time post-induction: 4.5 h; library: site-saturation at positions 5, 18, 19, 20.
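Also: peptides expressed intracellularly from a pBAD plasmid library in pooled LB shake-flask culture, induced with 0.3% L-arabinose, DNA abundance read by NGS, three biological replicates, DESeq2 with apeglm shrinkage.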

Row | Sequence | shrunken log2 fold change
1 | RRIRCRPPRLPRPRPRPEYYPRP | -0.159
2 | RRIRCRPPRLPRPRPRPWHLPRP | -0.221
3 | RRIRCRPPRLPRPRPRPPEYPRP | -0.319
4 | RRIRERPPRLPRPRPRPFGGPRP | -0.0945
5 | RRIRARPPRLPRPRPRPYWGPRP | -0.43
6 | RRIRFRPPRLPRPRPRPRRHPRP | 0.822
7 | RRIRDRPPRLPRPRPRPKPMPRP | 0.135
8 | RRIRRRPPRLPRPRPRPWDKPRP | 0.0425
9 | RRIRWRPPRLPRPRPRPKVPPRP | -0.0143
10 | RRIRQRPPRLPRPRPRPEWRPRP | -0.00139
11 | RRIRARPPRLPRPRPRPTLQPRP | 0.694
12 | RRIRQRPPRLPRPRPRPEWGPRP | 0.125
13 | RRIRVRPPRLPRPRPRPWEKPRP | 0.0403
14 | RRIRKRPPRLPRPRPRPQTLPRP | 0.0931
15 | RRIRNRPPRLPRPRPRPDHTPRP | -0.0123
16 | RRIRGRPPRLPRPRPRPYYWPRP | -0.25
17 | RRIRNRPPRLPRPRPRPQSMPRP | -0.567
18 | RRIRERPPRLPRPRPRPGCKPRP | 0.0591
19 | RRIRFRPPRLPRPRPRPNSHPRP | -0.432
20 | RRIRQRPPRLPRPRPRPPYVPRP | 0.191
21 | RRIRCRPPRLPRPRPRPARVPRP | 0.453
22 | RRIRKRPPRLPRPRPRPGCQPRP | 0.702
23 | RRIRLRPPRLPRPRPRPPPGPRP | 1.29
24 | RRIRYRPPRLPRPRPRPMLCPRP | -0.0838
25 | RRIRPRPPRLPRPRPRPLMCPRP | -0.122

Row | Sequence | shrunken log2 fold change
26 | RRIRVRPPRLPRPRPRPIFVPRP | -0.0998
27 | RRIRYRPPRLPRPRPRPFDYPRP | -0.184
28 | RRIRNRPPRLPRPRPRPPTLPRP | -0.204
29 | RRIRPRPPRLPRPRPRPNPMPRP | -0.211
30 | RRIRWRPPRLPRPRPRPFPKPRP | 0.0146
31 | RRIRPRPPRLPRPRPRPVNYPRP | -0.335
32 | RRIRKRPPRLPRPRPRPRHQPRP | 1.82
33 | RRIRVRPPRLPRPRPRPMFVPRP | 0.00262
34 | RRIRMRPPRLPRPRPRPFHSPRP | -0.0121
35 | RRIRWRPPRLPRPRPRPNLPPRP | -0.101
36 | RRIRFRPPRLPRPRPRPGPNPRP | -0.0666
37 | RRIRMRPPRLPRPRPRPTKGPRP | 0.258
38 | RRIRMRPPRLPRPRPRPPTSPRP | 1.23
39 | RRIRWRPPRLPRPRPRPDMNPRP | 0.143
40 | RRIRFRPPRLPRPRPRPVQMPRP | 0.189
41 | RRIRGRPPRLPRPRPRPSGSPRP | 0.128
42 | RRIRYRPPRLPRPRPRPIECPRP | 0.00468
43 | RRIRVRPPRLPRPRPRPRFMPRP | -0.459
44 | RRIRPRPPRLPRPRPRPMFVPRP | -0.254
45 | RRIRLRPPRLPRPRPRPVFWPRP | 0.247
46 | RRIRVRPPRLPRPRPRPVCVPRP | -0.0658
47 | RRIRHRPPRLPRPRPRPTCKPRP | -0.015
48 | RRIRHRPPRLPRPRPRPRPHPRP | 0.365
49 | RRIRERPPRLPRPRPRPLPGPRP | -0.165
50 | RRIRRRPPRLPRPRPRPVHTPRP | 0.0317

Row | Sequence | shrunken log2 fold change
51 | RRIRPRPPRLPRPRPRPRNNPRP | -0.228
52 | RRIRARPPRLPRPRPRPRGPPRP | 0.933
53 | RRIRGRPPRLPRPRPRPTFRPRP | -0.135
54 | RRIRGRPPRLPRPRPRPRERPRP | 0.789
55 | RRIRARPPRLPRPRPRPGNFPRP | -0.226
56 | RRIRSRPPRLPRPRPRPILDPRP | -0.152
57 | RRIRFRPPRLPRPRPRPQHLPRP | -1.22
58 | RRIRKRPPRLPRPRPRPTAGPRP | 0.581
59 | RRIRHRPPRLPRPRPRPKRHPRP | 0.0834
60 | RRIRGRPPRLPRPRPRPAESPRP | 0.764
61 | RRIRPRPPRLPRPRPRPPCDPRP | 0.182
62 | RRIRVRPPRLPRPRPRPIGVPRP | -0.01
63 | RRIRRRPPRLPRPRPRPVNWPRP | 0.439
64 | RRIRGRPPRLPRPRPRPHMAPRP | 0.271
65 | RRIRTRPPRLPRPRPRPYWEPRP | -0.0372
66 | RRIRWRPPRLPRPRPRPSHSPRP | -0.0913
67 | RRIRERPPRLPRPRPRPEVNPRP | -0.0365
68 | RRIRCRPPRLPRPRPRPDNTPRP | 0.881
69 | RRIRPRPPRLPRPRPRPKQHPRP | -0.0393
70 | RRIRNRPPRLPRPRPRPSHWPRP | -0.17
71 | RRIRRRPPRLPRPRPRPTHAPRP | 1.13
72 | RRIRGRPPRLPRPRPRPYANPRP | 0.0266
73 | RRIRTRPPRLPRPRPRPPPNPRP | 1.22
74 | RRIRQRPPRLPRPRPRPGTWPRP | 0.0676
75 | RRIRQRPPRLPRPRPRPHLNPRP | -0.29

Row | Sequence | shrunken log2 fold change
76 | RRIRCRPPRLPRPRPRPQGSPRP | 0.0401
77 | RRIRCRPPRLPRPRPRPCIMPRP | -0.336
78 | RRIRTRPPRLPRPRPRPAIMPRP | -0.0824
79 | RRIRGRPPRLPRPRPRPYMPPRP | -0.191
80 | RRIRYRPPRLPRPRPRPPTMPRP | -0.352
81 | RRIRLRPPRLPRPRPRPTCFPRP | -0.156
82 | RRIRDRPPRLPRPRPRPKCKPRP | -0.0015
83 | RRIRQRPPRLPRPRPRPAPLPRP | 0.451
84 | RRIRQRPPRLPRPRPRPITYPRP | -0.402
85 | RRIRYRPPRLPRPRPRPCCMPRP | -0.356
86 | RRIRERPPRLPRPRPRPQIIPRP | -1.12
87 | RRIRWRPPRLPRPRPRPNVNPRP | -0.171
88 | RRIRMRPPRLPRPRPRPEGCPRP | 3.93
89 | RRIRHRPPRLPRPRPRPHLMPRP | -0.177
90 | RRIRSRPPRLPRPRPRPMKYPRP | -0.278
91 | RRIRQRPPRLPRPRPRPAVAPRP | 0.0726
92 | RRIRLRPPRLPRPRPRPCNNPRP | -0.0778
93 | RRIRCRPPRLPRPRPRPYETPRP | 0.023
94 | RRIRFRPPRLPRPRPRPPDKPRP | 0.151
95 | RRIRRRPPRLPRPRPRPSNGPRP | -0.296
96 | RRIRWRPPRLPRPRPRPTPTPRP | 0.22
97 | RRIRRRPPRLPRPRPRPATDPRP | 0.204
98 | RRIRNRPPRLPRPRPRPALCPRP | -0.0208
99 | RRIRFRPPRLPRPRPRPYWMPRP | -0.371
100 | RRIRLRPPRLPRPRPRPPLSPRP | -0.00759

Row | Sequence | shrunken log2 fold change
101 | RRIRMRPPRLPRPRPRPPFGPRP | 0.789
102 | RRIRVRPPRLPRPRPRPSAYPRP | -0.34
103 | RRIRFRPPRLPRPRPRPMQTPRP | -0.101
104 | RRIRDRPPRLPRPRPRPGRAPRP | 0.478
105 | RRIRWRPPRLPRPRPRPPILPRP | 0.27
106 | RRIRYRPPRLPRPRPRPLMSPRP | -0.0164
107 | RRIRHRPPRLPRPRPRPCDRPRP | -0.239
108 | RRIRERPPRLPRPRPRPSWLPRP | 0.177
109 | RRIRCRPPRLPRPRPRPKKGPRP | -0.129
110 | RRIRARPPRLPRPRPRPPMLPRP | 0.805
111 | RRIRWRPPRLPRPRPRPDYKPRP | -0.0643
112 | RRIRPRPPRLPRPRPRPFKIPRP | 0.0869
113 | RRIRKRPPRLPRPRPRPEKHPRP | 0.401
114 | RRIRRRPPRLPRPRPRPCTNPRP | 0.0186
115 | RRIRGRPPRLPRPRPRPSNTPRP | -0.023
116 | RRIRSRPPRLPRPRPRPNLTPRP | -0.15
117 | RRIRCRPPRLPRPRPRPTFRPRP | 0.0981
118 | RRIRKRPPRLPRPRPRPFPQPRP | 0.11
119 | RRIRMRPPRLPRPRPRPHMSPRP | -0.123
120 | RRIRARPPRLPRPRPRPVVRPRP | 0.481
121 | RRIRARPPRLPRPRPRPRFVPRP | 0.457
122 | RRIRKRPPRLPRPRPRPDHMPRP | 0.0864
123 | RRIRQRPPRLPRPRPRPMDSPRP | -0.01
124 | RRIRLRPPRLPRPRPRPCLQPRP | -0.207
125 | RRIRNRPPRLPRPRPRPLQKPRP | -0.0108

Row | Sequence | shrunken log2 fold change
126 | RRIRGRPPRLPRPRPRPKVHPRP | 0.598
127 | RRIRTRPPRLPRPRPRPRYPPRP | -0.516
128 | RRIRLRPPRLPRPRPRPSNDPRP | 2.11
129 | RRIRNRPPRLPRPRPRPVEIPRP | -0.0323
130 | RRIRTRPPRLPRPRPRPSGGPRP | 0.863
131 | RRIRQRPPRLPRPRPRPDKCPRP | 0.272
132 | RRIRTRPPRLPRPRPRPRRDPRP | 0.394
133 | RRIRKRPPRLPRPRPRPKPCPRP | 0.0204
134 | RRIRGRPPRLPRPRPRPRAKPRP | 1.22
135 | RRIRQRPPRLPRPRPRPAQKPRP | -0.0027
136 | RRIRDRPPRLPRPRPRPYREPRP | -0.748
137 | RRIRCRPPRLPRPRPRPMVGPRP | -0.00233
138 | RRIRPRPPRLPRPRPRPWMNPRP | -0.0141
139 | RRIRRRPPRLPRPRPRPLINPRP | -0.0185
140 | RRIRPRPPRLPRPRPRPQKNPRP | -0.169
141 | RRIRQRPPRLPRPRPRPIIVPRP | -0.0856
142 | RRIRPRPPRLPRPRPRPHKAPRP | 0.0705
143 | RRIRSRPPRLPRPRPRPNITPRP | -0.582
144 | RRIRDRPPRLPRPRPRPDLDPRP | 0.632
145 | RRIRWRPPRLPRPRPRPNVQPRP | -0.0399
146 | RRIRFRPPRLPRPRPRPIKHPRP | -0.485
147 | RRIRYRPPRLPRPRPRPVPTPRP | -0.0167
148 | RRIRWRPPRLPRPRPRPYVQPRP | -0.0608
149 | RRIRDRPPRLPRPRPRPHLFPRP | 0.00233
150 | RRIRGRPPRLPRPRPRPPQSPRP | 1.27
